# Source: US20240182585A1
# Target: His-tagged human GFRAL (recombinant soluble GFRAL protein, R&D catalogue no. 9647-GR-050) (human) (UniProt Q6UXV0)
# Test: SPR sandwich assay: row antibody captured via anti-Fc, GFRAL antigen added, then mAbQ injected as analyte (competitor: mAb Q)
# Chain of His-tagged human GFRAL (recombinant soluble GFRAL protein, R&D catalogue no. 9647-GR-050) (human) (Q6UXV0 19-351): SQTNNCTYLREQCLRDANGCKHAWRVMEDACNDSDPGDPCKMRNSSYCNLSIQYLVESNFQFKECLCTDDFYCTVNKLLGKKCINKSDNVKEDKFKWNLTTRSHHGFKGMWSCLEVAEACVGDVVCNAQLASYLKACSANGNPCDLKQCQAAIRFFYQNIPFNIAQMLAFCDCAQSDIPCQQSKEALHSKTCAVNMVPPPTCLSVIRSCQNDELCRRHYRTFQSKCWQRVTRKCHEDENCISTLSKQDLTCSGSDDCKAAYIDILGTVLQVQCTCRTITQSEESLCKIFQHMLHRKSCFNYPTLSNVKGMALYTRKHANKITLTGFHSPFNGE
substance,measurement,value
IgG4PE (negative control) (antibody),resonance units after mAbQ injection (resonance units),4
